Laboratory results: PMC11558545, “Mechanistic Insights into the Function of 14-3-3 Proteins as Negative Regulators of Brassinosteroid Signaling in Arabidopsis” (Plant and Cell Physiology, 2024)
pKd: −log10 of the molar value.

Assays:
14-3-3κ = 14-3-3κ (UniProt P48348); experiment: isothermal titration calorimetry
[1] = molecular target: biotinylated 14-3-3 ω dimer (Arabidopsis thaliana) (UniProt Q01525); experiment: grating-coupled interferometry (GCI); Creoptix WAVE; biotinylated 14-3-3 ω dimer captured on a streptavidin-coated 4PCH chip (~500 pg/mm^2); peptide as analyte, 2-fold dilution series from 10 µM; 25°C; 20 mM Hepes, 150 mM NaCl; 1-to-1 (2:2) binding model
Chain of biotinylated 14-3-3 ω dimer (Arabidopsis thaliana) (Q01525 whole entry, canonical isoform): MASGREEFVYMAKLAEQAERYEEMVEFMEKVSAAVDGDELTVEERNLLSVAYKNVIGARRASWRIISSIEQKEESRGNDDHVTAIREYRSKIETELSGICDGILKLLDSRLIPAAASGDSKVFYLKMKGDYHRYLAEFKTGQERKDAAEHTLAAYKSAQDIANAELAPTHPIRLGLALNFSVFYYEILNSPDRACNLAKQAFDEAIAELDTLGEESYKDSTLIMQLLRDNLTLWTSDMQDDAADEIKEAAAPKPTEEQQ

[2] = molecular target: Arabidopsis 14-3-3 isoform kappa (At14-3-3-κ^1−248) (Arabidopsis thaliana) (UniProt P48348); experiment: ITC; Nano ITC, 25°C, 25 mM Hepes pH 7.0, 50 mM KCl; 600 μM peptide or phosphopeptide injected into 50 μM 14-3-3 protein in the cell, 25 injections
Chain of Arabidopsis 14-3-3 isoform kappa (At14-3-3-κ^1−248) (Arabidopsis thaliana) (P48348 whole entry, canonical isoform): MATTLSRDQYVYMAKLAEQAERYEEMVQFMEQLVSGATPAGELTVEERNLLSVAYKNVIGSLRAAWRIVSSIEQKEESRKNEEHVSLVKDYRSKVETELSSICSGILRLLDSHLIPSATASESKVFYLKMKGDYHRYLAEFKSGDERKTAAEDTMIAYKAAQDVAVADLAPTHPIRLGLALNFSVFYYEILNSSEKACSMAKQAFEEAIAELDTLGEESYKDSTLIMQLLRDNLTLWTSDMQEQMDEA

Chain of 14-3-3κ (P48348 whole entry, looked up): as the sequence (P48348 whole entry, canonical isoform) above

BRI1 869-874 (from UniProt O22476) pT872 peptide
binding against the reference (14-3-3κ; reference: unphosphorylated BRI1 869-874 peptide, sites T872): gained

pBZR1^169−175 peptide
pKd [1]: 6.30
complex lifetime [1]: 1 s
pKd [2]: 6.30
stoichiometry N [2]: 1

pBKI1^265−272 peptide
pKd [2]: 4.80
stoichiometry N [2]: 1

pBRI1^869−874 peptide
stoichiometry N [2]: 1

BKI1 265-272 (from UniProt Q9FMZ0) pS270 peptide
KD (14-3-3κ; reference: unphosphorylated BKI1 265-272 peptide, sites S270): gained; reference No binding was detected
